Measured values as given in patent US20230203202A1.

Assays:
[1] = target: poly-specificity reagent (PSR); experiment: flow cytometry PSR assay on protein A beads; same quadrant without PSR: 0.046
[2] = target: poly-specificity reagent (PSR); experiment: flow cytometry PSR assay on protein A beads; same quadrant without PSR: 9.17E-3
[3] = target: poly-specificity reagent (PSR); experiment: flow cytometry PSR assay on protein A beads; same quadrant without PSR: 0
[4] = target: poly-specificity reagent (PSR); experiment: flow cytometry PSR assay on protein A beads; same quadrant without PSR: 0.025

| Substance | Q2 (Expression-FITC high, Binding-PE high), + PSR [1] | Q3 (Expression-FITC low, Binding-PE high), + PSR [2] | Q3 (Expression-FITC low, Binding-PE high), + PSR [3] | Q2 (Expression-FITC high, Binding-PE high), + PSR [4] |
| --- | --- | --- | --- | --- |
| Rituximab (antibody) | 69.8 | 0.82 |  |  |
| Trastuzumab (antibody) |  |  | 0.049 | 0.37 |
